Source: article PMC3066130, “Molecular Architecture of the Human Mediator–RNA Polymerase II–TFIIF Assembly” (PLoS Biology, 2011)

Molecular target: T1, human RNA polymerase II (12-subunit enzyme) (human, UniProt P24928 1-1970; P30876 1-1174; P19387 1-275; O15514 1-142; P19388 1-210; P61218 …)
T1 construct: RPB1, largest subunit of human pol II; RPB2, subunit of human pol II; RPB3, subunit of human pol II; RPB4, subunit of human pol II; RPB5, subunit of human pol II; RPB6, subunit of human pol II; RPB7, subunit of human pol II; RPB8, subunit of human pol II; RPB9, subunit of human pol II; RPB10, subunit of human pol II; RPB11, subunit of human pol II; RPB12, subunit of human pol II; The CTD of RPB1 …
Experiment: co-sedimentation
Conditions: both partners purified

B1: human TFIIF (Rap74 and Rap30) (complex)
chain 1: MAALGPSSQNVTEYVVRVPKNTTKKYNIMAFNAADKVNFATWNQARLERDLSNKKIYQEEEMPESGAGSEFNRKLREEARRKKYGIVLKEFRPEDQPWLLRVNGKSGRKFKGIKKGGVTENTSYYIFTQCPDGAFEAFPVHNWYNFTPLARHRTLTAEEAEEEWERRNKVLNHFSIMQQRRLKDQDQDEDEEEKEKRGRRKASELRIHDLEDDLEMSSDASDASGEEGGRVPKAKKKAPLAKGGRKKKKKKGSDDEAFEDSDDGDFEGQEVDYMSDGSSSSQEEPESKAKAPQQEEGPKGVDEQSDSSEESEEEKPPEEDKEEEEEKKAPTPQEKKRRKDSSEESDSSEESDIDSEASSALFMAKKKTPPKRERKPSGGSSRGNSRPGTPSAEGGSTSSTLRAAASKLEQGKRVSEMPAAKRLRLDTGPQSLSGKSTPQPPSGKTTPNSGDVQVTEDAVRRYLTRKPMTTKDLLKKFQTKKTGLSSEQTVNVLAQILKRLNPERKMINDKMHFSLKE
chain 2: MAERGELDLTGAKQNTGVWLVKVPKYLSQQWAKASGRGEVGKLRIAKTQGRTEVSFTLNEDLANIHDIGGKPASVSAPREHPFVLQSVGGQTLTVFTESSSDKLSLEGIVVQRAECRPAASENYMRLKRLQIEESSKPVRLSQQLDKVVTTNYKPVANHQYNIEYERKKKEDGKRARADKQHVLDMLFSAFEKHQYYNLKDLVDITKQPVVYLKEILKEIGVQNVKGIHKNTWELKPEYRHYQGEEKSD
notes: Rap74, large subunit of human TFIIF; Rap30, small subunit of human TFIIF; also called dimeric TFIIF complex
  binding result: binds
